The text below walks through data of patent US20120020975A1 (published 2012).

The target in the assay is T1, mouse PCSK9, mPCSK9-8xHIS (mouse, UniProt Q80W65 35-694, limits assumed).
T1 construct: also called His-tagged mouse PCSK9; biotinylated-mouse PCSK9
As to the kind of experiment: KinExA solution equilibrium. Background: In KinExA the mixture passes briefly over coated beads that capture the unbound partner.

Excerpt: Equilibrium dissociation constant (KD) were obtained from nonlinear regression of the two sets of competition curves using a one-site homogeneous binding model. The KinExA® Pro software was employed in the analysis.

B1: 16F12, anti-PCSK9 huIgG4 (antibody, V domains shown)
VH: QVHLVESGGGVVQPGRSLRLSCAASGFTFNSFGMHWVRQAPGKGLEWVALIWSDGSDEYYADSVKGRFTISRDNSKNTLYLQMNSLRAEDTAVYYCARAIAALYYYYGMDVWGQGTTVTVSS
VL: QSVLTQPPSVSAAPGQKVTISCSGSSSNIGNNFVSWYQQLPGTAPKLLIYDYNKRPSGIPDRFSGSKSGTSATLGITGLQTGDEADYYCGTWDSSLSAYVFGTGTRVTVLQ
notes: also called 16F12.1
On to B1, for which the “fold lower affinity than to human and cyno PCSK9” value was 10 to 250 fold.
